Test results published in article PMC12990809.

Columns and labels:
Assay in all cases: pulldown
[1] = target: T1, Tb927.7.2140 V21F (Trypanosoma brucei) (UniProt D6XKD1); conditions: 20 nM protein, 1.5 uM RNA pool; 20 mM HEPES pH 7.8, 70 mM KCl, 10 mM NaCl, 10% glycerol, 2 mM DTT, 0.1 ug/uL BSA; 30 min, 4 C
T1 sequence: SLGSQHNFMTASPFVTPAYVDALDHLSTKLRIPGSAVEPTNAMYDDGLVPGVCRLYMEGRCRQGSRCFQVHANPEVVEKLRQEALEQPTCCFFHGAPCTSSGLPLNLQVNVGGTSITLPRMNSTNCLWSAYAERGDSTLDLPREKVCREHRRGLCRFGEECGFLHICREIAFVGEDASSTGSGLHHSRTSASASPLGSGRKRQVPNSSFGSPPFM

MBNL1 (Homo sapiens) = target: T2, MBNL1 (Homo sapiens) (UniProt Q9NR56); conditions: 20 nM protein, 1.5 uM RNA pool; 20 mM HEPES pH 7.8, 70 mM KCl, 10 mM NaCl, 10% glycerol, 2 mM DTT, 0.1 ug/uL BSA; 30 min, 4 C (protocol of this paper; not …); cited from earlier work
T2 sequence: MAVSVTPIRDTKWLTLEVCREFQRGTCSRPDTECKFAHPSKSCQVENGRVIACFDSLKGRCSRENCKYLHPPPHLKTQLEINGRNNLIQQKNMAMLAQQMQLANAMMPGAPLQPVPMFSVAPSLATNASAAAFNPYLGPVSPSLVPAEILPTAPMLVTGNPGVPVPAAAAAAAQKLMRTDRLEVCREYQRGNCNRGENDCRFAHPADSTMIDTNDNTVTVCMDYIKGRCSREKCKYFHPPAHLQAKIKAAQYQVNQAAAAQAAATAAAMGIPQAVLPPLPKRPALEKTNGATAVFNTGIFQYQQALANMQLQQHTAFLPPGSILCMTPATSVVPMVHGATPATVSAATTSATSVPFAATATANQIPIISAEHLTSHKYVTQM

[2] = target: T3, NAB2 (Saccharomyces cerevisiae) (UniProt P32505); conditions: 20 nM protein, 1.5 uM RNA pool; 20 mM HEPES pH 7.8, 70 mM KCl, 10 mM NaCl, 10% glycerol, 2 mM DTT, 0.1 ug/uL BSA; 30 min, 4 C (protocol of this paper; not …); cited from earlier work
T3 sequence: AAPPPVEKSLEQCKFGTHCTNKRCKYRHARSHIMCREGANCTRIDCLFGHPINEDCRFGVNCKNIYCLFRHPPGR

[3] = target: T4, CBG00421 (Caenorhabditis briggsae) (UniProt A8WN19); conditions: 20 nM protein, 1.5 uM RNA pool; 20 mM HEPES pH 7.8, 70 mM KCl, 10 mM NaCl, 10% glycerol, 2 mM DTT, 0.1 ug/uL BSA; 30 min, 4 C
T4 sequence: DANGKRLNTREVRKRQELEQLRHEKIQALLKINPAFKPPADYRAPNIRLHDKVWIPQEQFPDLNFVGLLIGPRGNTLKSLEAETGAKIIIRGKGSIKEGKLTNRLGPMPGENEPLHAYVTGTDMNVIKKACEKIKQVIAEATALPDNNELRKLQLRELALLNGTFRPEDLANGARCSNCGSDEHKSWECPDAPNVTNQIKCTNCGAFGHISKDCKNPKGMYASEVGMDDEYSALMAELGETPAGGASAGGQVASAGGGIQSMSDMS

[4] = target: T5, msi (Drosophila melanogaster) (UniProt H9ZJL0); conditions: 20 nM protein, 1.5 uM RNA pool; 20 mM HEPES pH 7.8, 70 mM KCl, 10 mM NaCl, 10% glycerol, 2 mM DTT, 0.1 ug/uL BSA; 30 min, 4 C (protocol of this paper; not …); cited from earlier work
T5 sequence: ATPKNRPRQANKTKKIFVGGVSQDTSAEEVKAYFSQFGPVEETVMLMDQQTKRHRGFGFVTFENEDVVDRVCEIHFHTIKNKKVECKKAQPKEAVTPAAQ

MSI1 (Homo sapiens) = MSI1 (Homo sapiens) (UniProt O43347); conditions: 20 nM protein, 1.5 uM RNA pool; 20 mM HEPES pH 7.8, 70 mM KCl, 10 mM NaCl, 10% glycerol, 2 mM DTT, 0.1 ug/uL BSA; 30 min, 4 C (protocol of this paper; not …); cited from earlier work
CELF4 (Homo sapiens) = CELF4 (Homo sapiens) (UniProt Q9BZC1); conditions: 20 nM protein, 1.5 uM RNA pool; 20 mM HEPES pH 7.8, 70 mM KCl, 10 mM NaCl, 10% glycerol, 2 mM DTT, 0.1 ug/uL BSA; 30 min, 4 C (protocol of this paper; not …); cited from earlier work
[5] = target: khdrbs1b (Tetraodon nigroviridis) (UniProt H3D6B2); conditions: 20 nM protein, 1.5 uM RNA pool; 20 mM HEPES pH 7.8, 70 mM KCl, 10 mM NaCl, 10% glycerol, 2 mM DTT, 0.1 ug/uL BSA; 30 min, 4 C
[6] = target: ENSTNIG00000011257 (Tetraodon nigroviridis) (UniProt H3D110); conditions: 20 nM protein, 1.5 uM RNA pool; 20 mM HEPES pH 7.8, 70 mM KCl, 10 mM NaCl, 10% glycerol, 2 mM DTT, 0.1 ug/uL BSA; 30 min, 4 C
[7] = target: hnrpkl (Tetraodon nigroviridis) (UniProt H3CQ29); conditions: 20 nM protein, 1.5 uM RNA pool; 20 mM HEPES pH 7.8, 70 mM KCl, 10 mM NaCl, 10% glycerol, 2 mM DTT, 0.1 ug/uL BSA; 30 min, 4 C
[8] = target: T6, PUB1 (Saccharomyces cerevisiae) (UniProt P32588); conditions: 20 nM protein, 1.5 uM RNA pool; 20 mM HEPES pH 7.8, 70 mM KCl, 10 mM NaCl, 10% glycerol, 2 mM DTT, 0.1 ug/uL BSA; 30 min, 4 C
T6 sequence: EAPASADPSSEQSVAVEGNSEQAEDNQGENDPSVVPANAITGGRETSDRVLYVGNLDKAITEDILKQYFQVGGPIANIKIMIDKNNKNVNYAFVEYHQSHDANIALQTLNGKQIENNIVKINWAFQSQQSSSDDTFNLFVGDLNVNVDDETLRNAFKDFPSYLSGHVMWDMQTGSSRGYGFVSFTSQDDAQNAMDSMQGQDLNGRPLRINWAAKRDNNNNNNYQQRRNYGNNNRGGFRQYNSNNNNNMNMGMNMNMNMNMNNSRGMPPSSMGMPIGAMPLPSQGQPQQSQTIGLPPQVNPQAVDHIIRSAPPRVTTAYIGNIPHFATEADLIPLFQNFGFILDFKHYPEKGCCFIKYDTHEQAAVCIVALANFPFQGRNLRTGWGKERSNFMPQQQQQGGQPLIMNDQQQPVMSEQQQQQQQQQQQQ

[9] = target: T7, Tb927.6.4960 Q72H;T102A;A103T (Trypanosoma brucei) (UniProt Q586G8); conditions: 20 nM protein, 1.5 uM RNA pool; 20 mM HEPES pH 7.8, 70 mM KCl, 10 mM NaCl, 10% glycerol, 2 mM DTT, 0.1 ug/uL BSA; 30 min, 4 C
T7 sequence: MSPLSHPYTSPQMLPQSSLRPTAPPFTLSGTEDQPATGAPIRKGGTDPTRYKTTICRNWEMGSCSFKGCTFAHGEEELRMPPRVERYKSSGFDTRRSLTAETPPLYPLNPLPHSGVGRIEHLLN

Chain of CELF4 (Homo sapiens) (Q9BZC1 6-486): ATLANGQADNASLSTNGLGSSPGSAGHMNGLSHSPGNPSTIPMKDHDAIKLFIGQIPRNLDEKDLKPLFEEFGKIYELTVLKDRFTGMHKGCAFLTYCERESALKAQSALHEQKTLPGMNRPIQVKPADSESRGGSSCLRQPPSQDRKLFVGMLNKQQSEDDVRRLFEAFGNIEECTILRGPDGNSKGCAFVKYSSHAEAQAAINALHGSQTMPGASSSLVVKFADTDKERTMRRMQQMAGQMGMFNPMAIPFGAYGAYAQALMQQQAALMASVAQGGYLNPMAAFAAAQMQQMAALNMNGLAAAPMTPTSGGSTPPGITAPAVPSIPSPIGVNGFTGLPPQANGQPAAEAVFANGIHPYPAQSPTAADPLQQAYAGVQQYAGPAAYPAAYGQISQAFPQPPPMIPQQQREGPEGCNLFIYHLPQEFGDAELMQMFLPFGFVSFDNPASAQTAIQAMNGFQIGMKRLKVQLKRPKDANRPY
Chain of khdrbs1b (Tetraodon nigroviridis) (H3D6B2 entry or part of it): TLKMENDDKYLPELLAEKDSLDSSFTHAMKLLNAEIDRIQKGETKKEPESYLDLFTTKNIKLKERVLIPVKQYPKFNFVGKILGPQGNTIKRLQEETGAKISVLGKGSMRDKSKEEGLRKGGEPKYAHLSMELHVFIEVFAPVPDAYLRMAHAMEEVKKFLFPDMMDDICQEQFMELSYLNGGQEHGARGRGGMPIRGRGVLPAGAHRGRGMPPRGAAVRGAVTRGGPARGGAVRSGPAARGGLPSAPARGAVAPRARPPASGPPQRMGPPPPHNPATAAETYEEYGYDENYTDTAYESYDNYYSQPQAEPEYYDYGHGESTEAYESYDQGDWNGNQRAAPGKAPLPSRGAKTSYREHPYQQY
Chain of ENSTNIG00000011257 (Tetraodon nigroviridis) (H3D110 entry or part of it): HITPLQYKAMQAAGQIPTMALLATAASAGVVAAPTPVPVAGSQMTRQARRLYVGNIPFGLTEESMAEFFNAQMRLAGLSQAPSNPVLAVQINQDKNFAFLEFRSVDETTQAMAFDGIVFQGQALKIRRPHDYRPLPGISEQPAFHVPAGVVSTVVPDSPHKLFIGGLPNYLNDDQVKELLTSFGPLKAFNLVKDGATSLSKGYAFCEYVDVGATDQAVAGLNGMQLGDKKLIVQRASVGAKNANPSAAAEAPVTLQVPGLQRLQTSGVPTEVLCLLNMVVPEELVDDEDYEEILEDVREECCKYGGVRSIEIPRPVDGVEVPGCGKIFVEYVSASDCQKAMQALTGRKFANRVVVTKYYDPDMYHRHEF
Chain of hnrpkl (Tetraodon nigroviridis) (H3CQ29 entry or part of it): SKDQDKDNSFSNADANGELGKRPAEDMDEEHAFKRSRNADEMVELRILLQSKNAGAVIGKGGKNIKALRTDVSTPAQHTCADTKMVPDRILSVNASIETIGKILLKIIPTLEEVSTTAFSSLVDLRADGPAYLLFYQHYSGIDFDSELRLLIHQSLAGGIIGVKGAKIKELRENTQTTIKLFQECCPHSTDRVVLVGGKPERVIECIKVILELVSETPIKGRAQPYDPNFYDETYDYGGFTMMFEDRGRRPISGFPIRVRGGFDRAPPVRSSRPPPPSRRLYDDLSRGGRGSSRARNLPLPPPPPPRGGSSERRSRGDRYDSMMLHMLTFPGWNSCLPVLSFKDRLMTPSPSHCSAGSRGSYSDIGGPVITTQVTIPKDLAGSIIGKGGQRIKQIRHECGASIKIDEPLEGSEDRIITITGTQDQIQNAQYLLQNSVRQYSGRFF
Chain of MSI1 (Homo sapiens) (O43347 1-230): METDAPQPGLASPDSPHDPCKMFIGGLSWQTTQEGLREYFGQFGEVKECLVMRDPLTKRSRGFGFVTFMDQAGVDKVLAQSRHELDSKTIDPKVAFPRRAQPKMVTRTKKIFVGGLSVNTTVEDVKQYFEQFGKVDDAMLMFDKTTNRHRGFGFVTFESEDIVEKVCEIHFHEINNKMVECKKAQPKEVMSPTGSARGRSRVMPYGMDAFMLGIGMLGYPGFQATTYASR

Which binding signal (z-score (mean of top ten 7-mers)) [1] does the source give for AAAACG [RNAcompete motif RNCMPT00834] here?
Its binding signal (z-score (mean of top ten 7-mers)) is 26.

Which binding signal (z-score (mean of top ten 7-mers)) (MBNL1 (Homo sapiens)) does the source give for GCUUGC [RNAcompete motif RNCMPT00038] here?
Its binding signal (z-score (mean of top ten 7-mers)) is 11.2.

With CCUCU [RNAcompete motif RNCMPT00042] as the substance, how does the binding signal (z-score (mean of top ten 7-mers)) [2] read?
Its binding signal (z-score (mean of top ten 7-mers)) is 6.1.

With GANUAAU [RNAcompete motif RNCMPT00840] as the substance, how does the binding signal (z-score (mean of top ten 7-mers)) [3] read?
Its binding signal (z-score (mean of top ten 7-mers)) is 14.5.

For GUAGUU [RNAcompete motif RNCMPT00040], which binding signal (z-score (mean of top ten 7-mers)) [4] is on record?
Its binding signal (z-score (mean of top ten 7-mers)) is 12.5.

With UAGUUAG [RNAcompete motif RNCMPT00041] as the substance, how does the binding signal (z-score (mean of top ten 7-mers)) (MSI1 (Homo sapiens)) read?
The binding signal (z-score (mean of top ten 7-mers)) was 9.05.

For UGUGUG [RNAcompete motif RNCMPT00004], which binding signal (z-score (mean of top ten 7-mers)) (CELF4 (Homo sapiens)) is on record?
Its binding signal (z-score (mean of top ten 7-mers)) is 7.26.

With AUAAAAG [RNAcompete motif RNCMPT01673] as the substance, how does the binding signal (z-score (mean of top ten 7-mers)) [5] read?
The binding signal (z-score (mean of top ten 7-mers)) was 8.63.

With UUUUUU [RNAcompete motif RNCMPT01671] as the substance, how does the binding signal (z-score (mean of top ten 7-mers)) [6] read?
The binding signal (z-score (mean of top ten 7-mers)) was 12.3.

Which binding signal (z-score (mean of top ten 7-mers)) [7] does the source give for AAACCCAA [RNAcompete motif RNCMPT01679] here?
The binding signal (z-score (mean of top ten 7-mers)) was 6.12.

With UUUUUUU [RNAcompete motif RNCMPT01685] as the substance, how does the binding signal (z-score (mean of top ten 7-mers)) [8] read?
Its binding signal (z-score (mean of top ten 7-mers)) is 11.6.

For UAAUAA [RNAcompete motif RNCMPT00833], which binding signal (z-score (mean of top ten 7-mers)) [9] is on record?
Its binding signal (z-score (mean of top ten 7-mers)) is 13.9.
